Laboratory results: patent publication US20150197564A1 (Regeneron, published 2015)

How the values were obtained:
Assay in all cases: SPR Biacore, antigen captured, 37C, pH 7.4, HBS-EP
MfANGPTL3(17-170)-mmH = molecular target: T1, MfANGPTL3(17-170)-mmH (Macaca fascicularis)
T1 construct: also called N-terminal coiled-coil domain of ANGPTL3 from Macaca fascicularis with myc-myc-hexahistidine tag; Monkey ANGPTL3 (17-170)-mmH
T1 chain: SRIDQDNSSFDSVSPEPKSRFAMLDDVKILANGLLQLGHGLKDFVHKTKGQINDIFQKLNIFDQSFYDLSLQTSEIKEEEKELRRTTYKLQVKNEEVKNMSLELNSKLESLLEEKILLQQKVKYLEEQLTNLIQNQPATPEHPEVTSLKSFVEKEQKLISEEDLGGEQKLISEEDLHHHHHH
Procedure: (§1) All kinetic binding experiments were performed at 25° C. or 37° C. on a BIACORE™ T200 label-free molecular interaction instrument (GE Healthcare) using a CM5 sensor chip. Briefly, an antigen capture surface was generated by covalently coupling either an anti-mouse IgG-specific antibody (anti-mFc; GE Healthcare; catalog #BR-1008-38) or an anti-pentahistidine-specific antibody (Qiagen; catalog #34660) to the surface of a CM5 sensor chip using a standard amine coupling method.

hANGPTL3(17-460)-His = molecular target: T2, hANGPTL3(17-460)-His (human, UniProt Q9Y5C1 17-460)
T2 construct: Bought protein (R&D Systems); also called full-length mature human ANGPTL3 with a C-terminal decahistidine tag; Human ANGPTL3 (17-460)-His
T2 sequence: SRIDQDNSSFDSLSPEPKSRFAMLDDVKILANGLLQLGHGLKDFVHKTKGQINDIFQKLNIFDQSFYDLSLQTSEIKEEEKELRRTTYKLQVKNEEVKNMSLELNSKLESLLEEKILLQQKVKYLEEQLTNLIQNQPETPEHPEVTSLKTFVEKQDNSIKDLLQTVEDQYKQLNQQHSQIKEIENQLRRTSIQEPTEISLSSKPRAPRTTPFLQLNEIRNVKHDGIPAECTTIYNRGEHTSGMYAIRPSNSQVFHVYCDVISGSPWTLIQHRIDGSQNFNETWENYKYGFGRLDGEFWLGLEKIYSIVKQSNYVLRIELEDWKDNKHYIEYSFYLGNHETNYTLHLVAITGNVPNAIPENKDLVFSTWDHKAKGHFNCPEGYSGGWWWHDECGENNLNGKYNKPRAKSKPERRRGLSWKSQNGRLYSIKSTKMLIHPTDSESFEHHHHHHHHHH
Procedure: as §1

mANGPTL3(17-240)-His = molecular target: T3, mANGPTL3(17-240)-His (Mus musculus, UniProt Q9R182 17-240)
T3 construct: also called N-terminal coiled-coil domain of ANGPTL3 from Mus musculus with a hexahistidine tag; Mouse ANGPTL3 (17-240)-His
T3 sequence: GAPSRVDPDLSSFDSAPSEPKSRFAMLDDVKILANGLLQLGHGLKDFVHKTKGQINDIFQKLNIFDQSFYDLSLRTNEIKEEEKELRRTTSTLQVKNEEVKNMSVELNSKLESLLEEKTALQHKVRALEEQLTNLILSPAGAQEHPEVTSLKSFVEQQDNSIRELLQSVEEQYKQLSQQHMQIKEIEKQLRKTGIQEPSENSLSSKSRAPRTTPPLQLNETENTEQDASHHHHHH
Procedure: as §1

mANGPTL3(17-455)-His = molecular target: T4, mANGPTL3(17-455)-His (Mus musculus, UniProt Q9R182 17-455)
T4 construct: Bought protein (R&D Systems); also called full-length mature ANGPTL3 from Mus musculus with a C-terminal decahistidine tag
T4 sequence: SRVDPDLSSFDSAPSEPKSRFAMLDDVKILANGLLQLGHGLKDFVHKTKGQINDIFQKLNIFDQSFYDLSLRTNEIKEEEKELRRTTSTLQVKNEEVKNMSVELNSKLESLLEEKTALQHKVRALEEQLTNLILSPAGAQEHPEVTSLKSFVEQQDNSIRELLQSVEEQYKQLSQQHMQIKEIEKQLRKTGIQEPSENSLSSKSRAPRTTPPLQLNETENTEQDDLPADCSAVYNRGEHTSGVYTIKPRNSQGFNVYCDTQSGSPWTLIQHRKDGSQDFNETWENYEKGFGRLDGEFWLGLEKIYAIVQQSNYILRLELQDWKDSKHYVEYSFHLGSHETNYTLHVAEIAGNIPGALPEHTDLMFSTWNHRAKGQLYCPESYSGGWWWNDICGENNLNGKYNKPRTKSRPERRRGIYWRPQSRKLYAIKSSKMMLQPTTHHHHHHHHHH
Procedure: as §1

hANGPTL3(17-170)-His = molecular target: T5, hANGPTL3(17-170)-His (human, UniProt Q9Y5C1 17-170)
T5 construct: also called N-terminal coiled-coil domain of hANGPTL3 with a C-terminal hexahistidine tag; Human ANGPTL3 (17-170)-His
T5 sequence: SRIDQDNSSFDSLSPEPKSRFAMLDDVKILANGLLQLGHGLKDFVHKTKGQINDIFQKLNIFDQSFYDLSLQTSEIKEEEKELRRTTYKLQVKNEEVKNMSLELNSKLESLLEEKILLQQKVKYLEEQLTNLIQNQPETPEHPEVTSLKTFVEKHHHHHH
Procedure: as §1

rANGPTL3(17-240)-mmH = molecular target: T6, rANGPTL3(17-240)-mmH (Rattus norvegicus)
T6 construct: also called N-terminal coiled-coil domain of ANGPTL3 from Rattus norvegicus with myc-myc-hexahistidine tag
T6 chain: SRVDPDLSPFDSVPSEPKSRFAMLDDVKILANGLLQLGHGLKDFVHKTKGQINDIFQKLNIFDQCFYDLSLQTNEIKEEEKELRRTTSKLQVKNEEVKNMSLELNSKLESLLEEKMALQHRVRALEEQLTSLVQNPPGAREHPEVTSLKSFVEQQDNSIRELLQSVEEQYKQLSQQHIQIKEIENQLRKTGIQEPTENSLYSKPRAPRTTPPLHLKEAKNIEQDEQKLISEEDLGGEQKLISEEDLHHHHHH
Procedure: as §1

Kd (MfANGPTL3(17-170)-mmH): 0.625 nM
koff (MfANGPTL3(17-170)-mmH): 0.00117 s⁻¹
kon (MfANGPTL3(17-170)-mmH): 1.87e+06 M⁻¹ s⁻¹
t1/2 (MfANGPTL3(17-170)-mmH): 9.9 min
Kd (hANGPTL3(17-460)-His): 1.29 nM
koff (hANGPTL3(17-460)-His): 0.000812 s⁻¹
kon (hANGPTL3(17-460)-His): 632000 M⁻¹ s⁻¹
t1/2 (hANGPTL3(17-460)-His): 14.2 min
Kd (mANGPTL3(17-240)-His): 1.18 nM
koff (mANGPTL3(17-240)-His): 0.000964 s⁻¹
kon (mANGPTL3(17-240)-His): 819000 M⁻¹ s⁻¹
t1/2 (mANGPTL3(17-240)-His): 12 min
Kd (mANGPTL3(17-455)-His): 0.408 nM
koff (mANGPTL3(17-455)-His): 0.000791 s⁻¹
kon (mANGPTL3(17-455)-His): 1.94e+06 M⁻¹ s⁻¹
t1/2 (mANGPTL3(17-455)-His): 14.6 min
Kd (hANGPTL3(17-170)-His): 1.52 nM
koff (hANGPTL3(17-170)-His): 0.00241 s⁻¹
kon (hANGPTL3(17-170)-His): 1.59e+06 M⁻¹ s⁻¹
t1/2 (hANGPTL3(17-170)-His): 4.8 min
Kd (rANGPTL3(17-240)-mmH): 0.94 nM
koff (rANGPTL3(17-240)-mmH): 0.00193 s⁻¹
kon (rANGPTL3(17-240)-mmH): 2.05e+06 M⁻¹ s⁻¹
t1/2 (rANGPTL3(17-240)-mmH): 6 min
B1: H4H1276S (antibody, IgG4, V domains shown)
VH: EVQLVESGGGVIQPGGSLRLSCAASGFTFDDYAMNWVRQGPGKGLEWVSAISGDGGSTYYADSVKGRFTISRDNSKNSLYLQMNSLRAEDTAFFYCAKDLRNTIFGVVIPDAFDIWGQGTMVTVSS
VL: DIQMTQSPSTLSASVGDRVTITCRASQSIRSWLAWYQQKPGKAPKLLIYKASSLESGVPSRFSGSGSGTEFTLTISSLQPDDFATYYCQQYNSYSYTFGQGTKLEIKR
